Legend:
[1] = target: T1, MSH2-MSH3 (MutSβ), purified (human, UniProt P43246 1-934; P20585 1-1137); assay: co-IP; in vitro immunoprecipitation: purified first protein on antibody-conjugated Dynabead protein G, washed with buffer X, second purified protein added for 1 h; western blot; settings: both partners purified
T1 construct: MSH2, human, full length; MSH3, human, full length; Purified on a HisTrap HP column; also called MSH2-MSH3 heterodimer; source: Hi5 insect cells (baculovirus), purified (HisTrap HP, Superdex 200)
T1 sequence (P43246 whole entry, chain 1 of 2): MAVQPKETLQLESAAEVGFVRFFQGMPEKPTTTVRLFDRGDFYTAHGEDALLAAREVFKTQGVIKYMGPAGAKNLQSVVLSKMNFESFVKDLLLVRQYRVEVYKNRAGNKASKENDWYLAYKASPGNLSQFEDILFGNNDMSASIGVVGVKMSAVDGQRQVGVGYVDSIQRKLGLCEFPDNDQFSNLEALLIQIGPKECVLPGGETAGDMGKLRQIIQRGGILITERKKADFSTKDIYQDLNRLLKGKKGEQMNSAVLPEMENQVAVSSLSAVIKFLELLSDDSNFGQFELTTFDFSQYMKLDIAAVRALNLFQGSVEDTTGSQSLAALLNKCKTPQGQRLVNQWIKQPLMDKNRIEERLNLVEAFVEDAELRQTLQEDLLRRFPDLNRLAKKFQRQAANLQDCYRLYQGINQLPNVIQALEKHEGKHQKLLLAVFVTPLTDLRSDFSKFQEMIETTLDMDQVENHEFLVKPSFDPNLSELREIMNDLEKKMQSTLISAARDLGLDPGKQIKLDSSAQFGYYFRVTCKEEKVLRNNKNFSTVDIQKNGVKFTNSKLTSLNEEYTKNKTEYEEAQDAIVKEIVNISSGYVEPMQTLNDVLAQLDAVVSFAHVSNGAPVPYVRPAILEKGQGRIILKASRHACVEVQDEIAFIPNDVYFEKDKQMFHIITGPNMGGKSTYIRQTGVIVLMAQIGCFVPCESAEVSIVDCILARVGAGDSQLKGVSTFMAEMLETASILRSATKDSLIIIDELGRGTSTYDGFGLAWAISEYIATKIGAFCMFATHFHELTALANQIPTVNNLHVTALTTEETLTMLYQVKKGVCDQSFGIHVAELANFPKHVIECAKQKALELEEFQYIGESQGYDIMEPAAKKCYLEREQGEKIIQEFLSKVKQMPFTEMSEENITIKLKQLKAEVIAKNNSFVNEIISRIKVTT
T1 sequence (P20585 whole entry, chain 2 of 2): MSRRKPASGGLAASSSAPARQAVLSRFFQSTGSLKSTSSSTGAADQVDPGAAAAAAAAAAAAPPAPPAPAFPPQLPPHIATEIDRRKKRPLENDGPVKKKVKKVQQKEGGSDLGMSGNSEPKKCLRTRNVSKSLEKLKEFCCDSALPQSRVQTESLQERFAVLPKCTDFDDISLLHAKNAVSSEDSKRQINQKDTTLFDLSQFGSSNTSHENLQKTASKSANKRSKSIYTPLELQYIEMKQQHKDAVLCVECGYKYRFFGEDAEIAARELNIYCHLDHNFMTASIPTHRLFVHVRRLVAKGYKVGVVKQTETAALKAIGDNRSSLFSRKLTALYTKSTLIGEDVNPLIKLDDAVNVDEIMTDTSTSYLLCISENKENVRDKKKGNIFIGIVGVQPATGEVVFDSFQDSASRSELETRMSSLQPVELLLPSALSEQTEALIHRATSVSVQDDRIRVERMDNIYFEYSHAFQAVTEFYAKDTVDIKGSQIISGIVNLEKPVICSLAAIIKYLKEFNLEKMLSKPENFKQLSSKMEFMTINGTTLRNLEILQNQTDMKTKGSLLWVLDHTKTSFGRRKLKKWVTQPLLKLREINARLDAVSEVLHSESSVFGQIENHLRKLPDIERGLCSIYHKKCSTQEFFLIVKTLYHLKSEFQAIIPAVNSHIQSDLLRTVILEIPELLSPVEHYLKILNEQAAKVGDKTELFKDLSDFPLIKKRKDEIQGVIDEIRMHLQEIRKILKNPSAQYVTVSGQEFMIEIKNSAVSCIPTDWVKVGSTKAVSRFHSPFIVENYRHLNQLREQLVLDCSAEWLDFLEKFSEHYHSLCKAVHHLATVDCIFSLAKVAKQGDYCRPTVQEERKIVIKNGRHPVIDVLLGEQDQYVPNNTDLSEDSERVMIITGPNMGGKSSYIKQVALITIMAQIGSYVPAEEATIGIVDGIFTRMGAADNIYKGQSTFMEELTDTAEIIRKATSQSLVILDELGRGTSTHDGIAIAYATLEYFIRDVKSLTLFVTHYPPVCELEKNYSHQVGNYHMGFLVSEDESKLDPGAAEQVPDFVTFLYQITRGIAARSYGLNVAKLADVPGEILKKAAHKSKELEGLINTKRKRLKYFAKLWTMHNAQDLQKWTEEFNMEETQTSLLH

[2] = target: T2, MSH2-MSH6 (MutSα), purified (human, UniProt P43246 1-934; P52701 1-1360); assay: native gel or EMSA; 4 μM or 8 μM SMARCAD1 incubated with 1 nM Cy5-labeled 40 bp homoduplex, GT mismatch or 58 bp flap DNA in buffer H with 1 mM ATP, then MSH2-MSH6 titrated, 5 min; settings: both partners purified
T2 construct: MSH2, human, full length; MSH6, human, full length; source: Hi5 insect cells (baculovirus), purified (HiTrap Heparin HP, HiTrap Q HP, Superdex 200)
T2 sequence (P43246 whole entry, chain 1 of 2): as the sequence (P43246 whole entry, chain 1 of 2) above
T2 sequence (P52701 whole entry, chain 2 of 2): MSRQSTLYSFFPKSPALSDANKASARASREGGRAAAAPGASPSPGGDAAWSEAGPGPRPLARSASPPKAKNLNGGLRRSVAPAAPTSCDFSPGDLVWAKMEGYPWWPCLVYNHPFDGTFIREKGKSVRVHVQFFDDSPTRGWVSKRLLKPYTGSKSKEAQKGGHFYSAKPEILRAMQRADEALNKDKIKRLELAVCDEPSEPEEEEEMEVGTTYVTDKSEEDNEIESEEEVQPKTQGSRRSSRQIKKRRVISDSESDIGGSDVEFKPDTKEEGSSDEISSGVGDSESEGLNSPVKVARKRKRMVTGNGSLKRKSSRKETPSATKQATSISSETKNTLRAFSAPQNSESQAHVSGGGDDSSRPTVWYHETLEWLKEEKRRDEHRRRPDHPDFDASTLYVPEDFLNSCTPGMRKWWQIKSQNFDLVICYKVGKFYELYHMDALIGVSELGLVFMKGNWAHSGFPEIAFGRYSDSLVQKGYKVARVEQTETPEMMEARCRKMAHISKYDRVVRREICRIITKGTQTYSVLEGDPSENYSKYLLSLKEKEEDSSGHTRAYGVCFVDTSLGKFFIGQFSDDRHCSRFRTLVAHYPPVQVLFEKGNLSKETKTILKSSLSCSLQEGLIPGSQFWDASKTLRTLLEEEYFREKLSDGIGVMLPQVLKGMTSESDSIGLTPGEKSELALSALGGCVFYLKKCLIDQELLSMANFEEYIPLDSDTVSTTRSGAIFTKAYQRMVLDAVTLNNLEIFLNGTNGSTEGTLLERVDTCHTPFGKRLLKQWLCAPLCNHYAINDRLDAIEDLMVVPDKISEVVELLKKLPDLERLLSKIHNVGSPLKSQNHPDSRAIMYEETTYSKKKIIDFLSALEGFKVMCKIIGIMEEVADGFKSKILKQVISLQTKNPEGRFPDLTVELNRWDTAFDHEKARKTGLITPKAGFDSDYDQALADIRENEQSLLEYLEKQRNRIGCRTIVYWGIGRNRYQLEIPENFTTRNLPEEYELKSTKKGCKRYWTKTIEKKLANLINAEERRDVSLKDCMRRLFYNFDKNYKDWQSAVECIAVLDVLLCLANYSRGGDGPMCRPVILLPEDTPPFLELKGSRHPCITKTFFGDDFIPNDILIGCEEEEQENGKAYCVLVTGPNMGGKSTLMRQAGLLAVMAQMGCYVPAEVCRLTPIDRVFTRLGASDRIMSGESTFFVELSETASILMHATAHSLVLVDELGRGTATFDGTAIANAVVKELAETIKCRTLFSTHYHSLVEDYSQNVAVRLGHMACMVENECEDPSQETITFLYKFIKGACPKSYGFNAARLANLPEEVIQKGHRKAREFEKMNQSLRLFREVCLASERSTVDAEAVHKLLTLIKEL

B1: SMARCAD1, purified (enzyme, human, UniProt Q9H4L7 1-1026, looked up)
chain: MNLFNLDRFRFEKRNKIEEAPEATPQPSQPGPSSPISLSAEEENAEGEVSRANTPDSDITEKTEDSSVPETPDNERKASISYFKNQRGIQYIDLSSDSEDVVSPNCSNTVQEKTFNKDTVIIVSEPSEDEESQGLPTMARRNDDISELEDLSELEDLKDAKLQTLKELFPQRSDNDLLKLIESTSTMDGAIAAALLMFGDAGGGPRKRKLSSSSEPYEEDEFNDDQSIKKTRLDHGEESNESAESSSNWEKQESIVLKLQKEFPNFDKQELREVLKEHEWMYTEALESLKVFAEDQDMQYVSQSEVPNGKEVSSRSQNYPKNATKTKLKQKFSMKAQNGFNKKRKKNVFNPKRVVEDSEYDSGSDVGSSLDEDYSSGEEVMEDGYKGKILHFLQDASIGELTLIPQCSQKKAQKITELRPFNSWEALFTKMSKTNGLSEDLIWHCKTLIQERDVVIRLMNKCEDISNKLTKQVTMLTGNGGGWNIEQPSILNQSLSLKPYQKVGLNWLALVHKHGLNGILADEMGLGKTIQAIAFLAYLYQEGNNGPHLIVVPASTIDNWLREVNLWCPTLKVLCYYGSQEERKQIRFNIHSRYEDYNVIVTTYNCAISSSDDRSLFRRLKLNYAIFDEGHMLKNMGSIRYQHLMTINANNRLLLTGTPVQNNLLELMSLLNFVMPHMFSSSTSEIRRMFSSKTKSADEQSIYEKERIAHAKQIIKPFILRRVKEEVLKQLPPKKDRIELCAMSEKQEQLYLGLFNRLKKSINNLEKNTEMCNVMMQLRKMANHPLLHRQYYTAEKLKEMSQLMLKEPTHCEANPDLIFEDMEVMTDFELHVLCKQYRHINNFQLDMDLILDSGKFRVLGCILSELKQKGDRVVLFSQFTMMLDILEVLLKHHQHRYLRLDGKTQISERIHLIDEFNTDMDIFVFLLSTKAGGLGINLTSANVVILHDIDCNPYNDKQAEDRCHRVGQTKEVLVIKLISQGTIEESMLKINQQKLKLEQDMTTVDEGDEGSMPADIATLLKTSMGL
notes: SMARCAD1, human, full length; source: Hi5 insect cells (baculovirus), purified (HisTrap HP, Superdex 200)
binding result [1]: binds
binding result [2]: binds

From article PMC10287916, “MSH2-MSH3 promotes DNA end resection during homologous recombination and blocks polymerase theta-mediated end-joining through interaction with SMARCAD1 and EXO1” (Nucleic Acids Research, 2023)
